# Measured values published in IntAct's records for PubMed 15935762.
# B1: Protein pop-1 (Caenorhabditis elegans), Q10666 (parent)
# chain: MMADEELGDEVKVFRRDEDADDDPMISGETSEQQLADDKKEAVMEAELDGAGRNPSIDVLKSAFPKVEPMSPSFPGLMSHFSPGYSAAALPMFMPLFMNPYAAALRSPSLMFPMGAMSPTFPMFPPSPVYGAAIAAAAAKQHFENMAPLNMRAGHPMNQMGMPPYMHPSSMAPQNVDRRAQGGGKAKKDDHVKKPLNAFMWFMKENRKALLEEIGNNEKQSAELNKELGKRWHDLSKEEQAKYFEMAKKDKETHKERYPEWSARENYAVNKKKTKKRRDKSIPSENNDQKKCRARFGVNNTEMWCKFCKRKKKCEYATDRSGGSDITDSQDGRGTSGAYSSSSESPSPKANAGIALTTQQQQAAMMHTMLMQMRLGSTTGASTHVPSPLASSSAGRSPLDANASDSESDVEEEEDEQIDPTVMQQTHDMLMQESMCTI
# partner: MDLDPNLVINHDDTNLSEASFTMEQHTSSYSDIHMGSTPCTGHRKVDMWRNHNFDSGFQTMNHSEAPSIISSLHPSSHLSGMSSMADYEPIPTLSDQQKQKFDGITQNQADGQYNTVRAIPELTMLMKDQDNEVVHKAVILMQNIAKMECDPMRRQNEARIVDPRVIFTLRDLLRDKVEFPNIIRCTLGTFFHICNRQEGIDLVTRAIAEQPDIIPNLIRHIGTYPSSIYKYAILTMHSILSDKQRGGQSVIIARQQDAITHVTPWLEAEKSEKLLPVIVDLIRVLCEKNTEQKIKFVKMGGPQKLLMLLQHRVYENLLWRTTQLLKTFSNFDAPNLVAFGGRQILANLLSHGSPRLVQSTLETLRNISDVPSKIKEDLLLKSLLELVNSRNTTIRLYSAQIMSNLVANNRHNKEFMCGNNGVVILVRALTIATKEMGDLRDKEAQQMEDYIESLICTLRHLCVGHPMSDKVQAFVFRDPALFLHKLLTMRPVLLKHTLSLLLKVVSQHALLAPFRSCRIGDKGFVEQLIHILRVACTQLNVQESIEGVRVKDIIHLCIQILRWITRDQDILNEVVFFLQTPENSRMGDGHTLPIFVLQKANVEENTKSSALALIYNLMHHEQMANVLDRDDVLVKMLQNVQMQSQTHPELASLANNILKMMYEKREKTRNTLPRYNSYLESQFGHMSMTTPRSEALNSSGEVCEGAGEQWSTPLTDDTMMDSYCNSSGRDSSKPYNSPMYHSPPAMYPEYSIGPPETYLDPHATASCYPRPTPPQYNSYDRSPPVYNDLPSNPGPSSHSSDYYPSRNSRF
# B2: Protein pop-1 (Caenorhabditis elegans), Q10666 (parent)
# chain: B1 chain
# partner: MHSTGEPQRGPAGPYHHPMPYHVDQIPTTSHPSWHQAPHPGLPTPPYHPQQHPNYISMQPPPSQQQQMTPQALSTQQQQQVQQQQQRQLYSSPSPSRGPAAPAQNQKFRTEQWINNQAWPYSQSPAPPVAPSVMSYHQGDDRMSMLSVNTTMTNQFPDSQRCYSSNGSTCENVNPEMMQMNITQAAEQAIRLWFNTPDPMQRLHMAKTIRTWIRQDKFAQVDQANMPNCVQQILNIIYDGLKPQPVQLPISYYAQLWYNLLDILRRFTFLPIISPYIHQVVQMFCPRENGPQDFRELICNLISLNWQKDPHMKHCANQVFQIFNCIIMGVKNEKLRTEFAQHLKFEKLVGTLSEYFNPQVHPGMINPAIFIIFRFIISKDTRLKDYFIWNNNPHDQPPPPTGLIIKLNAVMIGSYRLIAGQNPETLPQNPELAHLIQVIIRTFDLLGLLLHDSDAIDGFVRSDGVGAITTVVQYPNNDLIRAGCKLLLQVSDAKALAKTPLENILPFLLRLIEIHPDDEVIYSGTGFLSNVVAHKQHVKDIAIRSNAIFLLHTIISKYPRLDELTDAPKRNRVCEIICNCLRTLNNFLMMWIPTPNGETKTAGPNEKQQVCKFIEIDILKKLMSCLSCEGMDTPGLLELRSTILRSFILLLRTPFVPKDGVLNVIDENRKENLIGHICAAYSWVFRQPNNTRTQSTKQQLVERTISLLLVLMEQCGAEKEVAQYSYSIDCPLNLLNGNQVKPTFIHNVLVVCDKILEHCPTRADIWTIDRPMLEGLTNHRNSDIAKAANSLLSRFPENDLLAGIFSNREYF
# Variants of: B1
# Conditions: with bar1_caeel bar-1, Q18825
row,effect of a mutation on the interaction,Variant
1,decreasing interaction strength,D9E

# Variants of: B2
# Conditions: with ctnh1_caeel sys-1, Q9XVI2
row,effect of a mutation on the interaction,Variant
1,disrupting interaction strength,D9E
